Source: publication PMC8634867

What follows are substances tested against C10A mutant of Arabidopsis thaliana cytochrome c1, soluble domain (Arabidopsis thaliana) (assay: BLI; His6-tagged Cc1 (50 ug/mL) immobilised on Ni-NTA biosensors (Octet RED 96e); Cc at 0.3215-10 uM; 10 mM sodium phosphate pH 7.4, 0.01 uM rabbit serum albumin, 0.01% Triton X-100; both proteins reduced; wavelength shift at equilibrium fitted to a non-linear equation with a linear non-specific term; in duplicate).
“human cytochrome c, wild-type (from UniProt P99999 1-105) (natural protein)” was tested, and the Kd was 0.137 µM.
Substance “human cytochrome c K53Q acetyl-mimetic mutant (from UniProt P99999 1-105) (natural protein)” has a Kd of 0.116 µM.
“human cytochrome c K8Q acetyl-mimetic mutant (from UniProt P99999 1-105) (natural protein)” was tested, and the Kd was 0.099 µM.
